Measurements reported in publication PMC9380774, “Mpe1 senses the binding of pre-mRNA and controls 3′ end processing by CPF” (Molecular Cell, 2022).

Columns and labels:
[1] = biological target: T1, polymerase module (Cft1-Pap1-Pfs2-Fip1-Yth1);Mpe1 (Saccharomyces cerevisiae;Saccharomyces …, UniProt Q06632;P29468;P42841;P45976;Q06102;P35728 1-1357;1-568;1-465;1-327;1-208;1-441, |); experiment: size exclusion chromatography; 5 uM polymerase module, 15 uM Mpe1, 10 uM RNA; comigration, later elution; EMSA: SEC 50 buffer (composition not given in material), 50 nM FAM-RNA, 10% native PAGE 1X TBE, room temperature; SEC: Superose 6 Increase 3.2/300 in SEC 50; conditions: protein: recombinant;recombinant; tags: untagged (from polymerase module-Mpe1 purification); Pfs2-SII in some preparations;C-terminal SII; copies: 1;1;1;1;1;1; label: 5' 6-FAM; single strand
[2] = biological target: T1, polymerase module …; experiment: cryo-EM; Zn2+; 2.66 A; EMSA: SEC 50 buffer (composition not given in material), 50 nM FAM-RNA, 10% native PAGE 1X TBE, room temperature; SEC: Superose 6 Increase 3.2/300 in SEC 50; conditions: protein: recombinant;recombinant; tags: untagged (from polymerase module-Mpe1 purification); Pfs2-SII in some preparations;C-terminal SII; copies: 1;1;1;1;1;1; single strand; 4 nt modelled
[3] = biological target: polymerase module (Cft1-Pap1-Pfs2-Fip1-Yth1);Mpe1;yPIM peptide of Cft2 (Saccharomyces cerevisiae;Saccharomyces …, UniProt Q06632;P29468;P42841;P45976;Q06102;P35728;Q12102 …, ||); experiment: cryo-EM; Zn2+; 2.61 A; Cft2 yPIM peptide; EMSA: SEC 50 buffer (composition not given in material), 50 nM FAM-RNA, 10% native PAGE 1X TBE, room temperature; SEC: Superose 6 Increase 3.2/300 in SEC 50; conditions: tags: untagged (from polymerase module-Mpe1 purification); Pfs2-SII in some preparations;C-terminal SII;; copies: 1;1;2;1;1;1;1; single strand; 4 nt modelled

Binder | binding result [1] | binding result [2] | binding result [3]
UUUAUAGUUAUGUUAGUAUUAAGAACGUUAUUUAUAUUUCAA (ssRNA) [precleaved CYC1 (pcCYC1), 42 nt] | binds | – | –
UUUAUAGUUAUGUUAGUAUUAAGAACGUUAUUUAUAUUUCAA (ssRNA) [precleaved CYC1 used for cryo-EM (IDT FAM or T7 version not stated)] | – | binds | binds
